According to patent publication US20110311550A1:
pEC50, pIC50: −log10 of the molar value. Read-outs that look alike come from different tables or passages of the source.

Assays:
[1] = target: HCV E1E2 complex, isolate H77 (genotype 1a) (hepatitis C virus genotype 1a, isolate H77) (UniProt P27958); test: ELISA, mAb with E1E2 (H77), then CD81-LEL plate
[2] = target: HCV E1E2 complex, isolate H77 (genotype 1a) (hepatitis C virus genotype 1a, isolate H77) (UniProt P27958); test: apparent affinity: half-maximal binding, ELISA on lectin-captured E1E2
[3] = target: HCV E1E2 complex, isolate HCV-1 (genotype 1a), vaccinia-expressed (hepatitis C virus genotype 1a, isolate HCV-1) (UniProt P26664); test: as above
[4] = target: HCV E1E2 complex, isolate H77 (genotype 1a) (hepatitis C virus genotype 1a, isolate H77) (UniProt P27958)
[5] = target: E1E2 complex of HCV isolate H77 (genotype 1a), wild type (HCV isolate H77) (UniProt P27958); test: competition ELISA on H77 E1E2; competitor m37 (Fab N1)
[6] = target: E1E2 complex of HCV isolate H77 (genotype 1a), wild type (HCV isolate H77) (UniProt P27958); test: competition ELISA on H77 E1E2; competitor m38 (Fab N2)
[7] = target: E1E2 complex of HCV isolate H77 (genotype 1a), wild type (HCV isolate H77) (UniProt P27958); test: competition ELISA on H77 E1E2; competitor m39 (Fab N3)
[8] = target: E1E2 complex of HCV isolate H77 (genotype 1a), wild type (HCV isolate H77) (UniProt P27958); test: competition ELISA on H77 E1E2; competitor m40 (Fab N4)
[9] = target: E1E2 complex of HCV isolate H77 (genotype 1a), wild type (HCV isolate H77) (UniProt P27958); test: competition ELISA on H77 E1E2; competitor m41 (Fab O1)
[10] = target: E1E2 complex of HCV isolate H77 (genotype 1a), wild type (HCV isolate H77) (UniProt P27958); test: competition ELISA on H77 E1E2; competitor m42 (Fab P1)
[11] = target: E1E2 complex of HCV isolate H77 (genotype 1a), wild type (HCV isolate H77) (UniProt P27958); test: competition ELISA on H77 E1E2; competitor m44 (Fab P2)
[12] = target: E1E2 complex of HCV isolate H77 (genotype 1a), wild type (HCV isolate H77) (UniProt P27958); test: competition ELISA on H77 E1E2; competitor m45 (Fab P3)
[13] = target: E1E2 complex of HCV isolate H77 (genotype 1a), wild type (HCV isolate H77) (UniProt P27958); test: competition ELISA on H77 E1E2; competitor m46 (Fab P4)
[14] = target: E1E2 complex of HCV isolate H77 (genotype 1a), wild type (HCV isolate H77) (UniProt P27958); test: competition ELISA on H77 E1E2; competitor m43 (Fab P1a)
[15] = target: HCV E1E2 complex, isolate H77 (genotype 1a) (hepatitis C virus genotype 1a, isolate H77) (UniProt P27958); test: competition ELISA on lectin-captured H77 E1E2; competitor: Fab P5
[16] = target: HCV E1E2 complex, isolate H77 (genotype 1a) (hepatitis C virus genotype 1a, isolate H77) (UniProt P27958); test: competition ELISA on lectin-captured H77 E1E2; competitor: Fab P6
[17] = target: HCV E1E2 complex, isolate H77 (genotype 1a) (hepatitis C virus genotype 1a, isolate H77) (UniProt P27958); test: competition ELISA on lectin-captured H77 E1E2; competitor: Fab Q1
[18] = target: HCV E1E2 complex, isolate H77 (genotype 1a) (hepatitis C virus genotype 1a, isolate H77) (UniProt P27958); test: competition ELISA on lectin-captured H77 E1E2; competitor: Fab Q2
[19] = target: HCV E1E2 complex, isolate H77 (genotype 1a) (hepatitis C virus genotype 1a, isolate H77) (UniProt P27958); test: competition ELISA on lectin-captured H77 E1E2; competitor: Fab R1
[20] = target: HCV E1E2 complex, isolate H77 (genotype 1a) (hepatitis C virus genotype 1a, isolate H77) (UniProt P27958); test: competition ELISA on lectin-captured H77 E1E2; competitor: Fab S1
[21] = target: HCV E1E2 complex, isolate H77 (genotype 1a) (hepatitis C virus genotype 1a, isolate H77) (UniProt P27958); test: competition ELISA on lectin-captured H77 E1E2; competitor: Fab T1
[22] = target: HCV E1E2 complex, isolate H77 (genotype 1a) (hepatitis C virus genotype 1a, isolate H77) (UniProt P27958); test: competition ELISA on lectin-captured H77 E1E2; competitor: Fab U1
[23] = target: HCV E1E2 complex, isolate H77 (genotype 1a) (hepatitis C virus genotype 1a, isolate H77) (UniProt P27958); test: competition ELISA on lectin-captured H77 E1E2; competitor: Fab V1
[24] = target: HCV E1E2 complex, isolate H77 (genotype 1a) (hepatitis C virus genotype 1a, isolate H77) (UniProt P27958); test: competition ELISA on lectin-captured H77 E1E2; competitor: AR1B (in the Blocking Fab columns)
[25] = target: HCV E1E2 complex, isolate H77 (genotype 1a) (hepatitis C virus genotype 1a, isolate H77) (UniProt P27958); test: competition ELISA on lectin-captured H77 E1E2; competitor: AR2A (in the Blocking Fab columns)

MAb AR3D (IgG1 from Fab L4) (antibody)
pIC50 [1]: 9.00
pEC50 [2]: 8.40
pEC50 [3]: 8.62

MAb AR3D (antibody)
residual binding [4]: 58%

mouse MAb A4 (antibody)
% residual binding [5]: 100%
% residual binding [6]: 101%
% residual binding [7]: 96%
% residual binding [8]: 100%
% residual binding [9]: 96%
% residual binding [10]: 101%
% residual binding [11]: 102%
% residual binding [12]: 100%
% residual binding [13]: 98%
% residual binding [14]: 100%
residual binding [15]: 100%
residual binding [16]: 99%
residual binding [17]: 95%
residual binding [18]: 98%
residual binding [19]: 99%
residual binding [20]: 100%
residual binding [21]: 99%
residual binding [22]: 101%
residual binding [23]: 99%
residual binding [24]: 85%
residual binding [25]: 87%
